PMC9232852 (2022)
One block for each binder: values may come before it.

Tests used:
BTN2A1 ID271 = target: T1, BTN2A1 ID271 (Homo sapiens, UniProt Q7KYR7); assay: ITC
T1 chain: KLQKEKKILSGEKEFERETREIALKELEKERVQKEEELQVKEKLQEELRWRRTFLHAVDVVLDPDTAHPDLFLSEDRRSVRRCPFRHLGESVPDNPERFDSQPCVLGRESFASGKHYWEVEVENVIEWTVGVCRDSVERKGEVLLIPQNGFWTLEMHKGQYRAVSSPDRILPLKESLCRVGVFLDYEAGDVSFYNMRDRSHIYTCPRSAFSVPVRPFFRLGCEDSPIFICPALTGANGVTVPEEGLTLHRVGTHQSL

BTN2A1 ID309 = target: T2, BTN2A1 ID309 (Homo sapiens, UniProt Q7KYR7); assay: ITC
T2 chain: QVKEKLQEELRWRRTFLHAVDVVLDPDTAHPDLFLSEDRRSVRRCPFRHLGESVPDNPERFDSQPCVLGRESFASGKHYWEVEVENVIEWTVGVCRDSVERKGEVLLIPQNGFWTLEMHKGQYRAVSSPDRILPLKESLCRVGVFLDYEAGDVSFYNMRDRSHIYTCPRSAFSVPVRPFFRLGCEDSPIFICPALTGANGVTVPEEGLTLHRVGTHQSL

Kd (BTN2A1 ID271): 463 nM
B1: BTN3A1 B30.2 (protein)
chain: not shown
modifications: HMBPP

Kd (BTN2A1 ID309): 674 nM
Kd (BTN2A1 ID271): 886 nM
B2: BTN3A1 BFI (full intracellular domain) (protein)
chain: not shown
modifications: HMBPP
